The target in the assay is T1, GST-SMAD4^R361H, Q13485.
T1 chain: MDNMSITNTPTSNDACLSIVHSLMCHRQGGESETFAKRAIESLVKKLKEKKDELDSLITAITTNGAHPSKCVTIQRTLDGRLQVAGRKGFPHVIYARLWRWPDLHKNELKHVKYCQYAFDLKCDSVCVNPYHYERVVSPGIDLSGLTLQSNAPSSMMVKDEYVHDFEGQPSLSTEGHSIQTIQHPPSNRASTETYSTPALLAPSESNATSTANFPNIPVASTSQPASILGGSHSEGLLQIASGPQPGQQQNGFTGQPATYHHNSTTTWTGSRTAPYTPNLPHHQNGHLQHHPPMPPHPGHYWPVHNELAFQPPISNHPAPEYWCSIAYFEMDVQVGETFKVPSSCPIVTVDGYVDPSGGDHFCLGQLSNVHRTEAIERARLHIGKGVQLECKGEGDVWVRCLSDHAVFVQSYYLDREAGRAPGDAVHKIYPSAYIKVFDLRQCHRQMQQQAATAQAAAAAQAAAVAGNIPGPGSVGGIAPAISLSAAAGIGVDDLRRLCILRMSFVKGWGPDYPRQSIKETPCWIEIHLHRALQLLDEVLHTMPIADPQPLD
Nature of the assay: pull-down. The settings on record: remark: other sources report otherwise.

B1: Venus-flag-SMAD3, P84022 1-425 (natural protein)
chain: MSSILPFTPPIVKRLLGWKKGEQNGQEEKWCEKAVKSLVKKLKKTGQLDELEKAITTQNVNTKCITIPRSLDGRLQVSHRKGLPHVIYCRLWRWPDLHSHHELRAMELCEFAFNMKKDEVCVNPYHYQRVETPVLPPVLVPRHTEIPAEFPPLDDYSHSIPENTNFPAGIEPQSNIPETPPPGYLSEDGETSDHQMNHSMDAGSPNLSPNPMSPAHNNLDLQPVTYCEPAFWCSISYYELNQRVGETFHASQPSMTVDGFTDPSNSERFCLGLLSNVNRNAAVELTRRHIGRGVRLYYIGGEVFAECLSDSAIFVQSPNCNQRYGWHPATVCKIPPGCNLKIFNNQEFAALLAQSVNQGFEAVYQLTRMCTIRMSFVKGWGAEYRRQTVTSTPCWIELHLNGPLQWLDKVLTQMGSPSIRCSSVS
For B1, the EC50 of Go-6983 in enhancing the complex stood at 8.9 µM and the EC50 of Ro-31-8220 in enhancing the complex is 2.1 µM.

The record behind these values is PMC10053325.
